Laboratory results as given in PMC5432575, “CRP Regulates D-Lactate Oxidation in Shewanella oneidensis MR-1”.

How the values were obtained:
[1] = molecular target: T1, CRP (N-his-CRP) (Shewanella oneidensis MR-1) (UniProt Q8EJ49); assay: EMSA; details: 20 ul: 2 nM Cy3-labeled probe, 50 ng N-his-CRP, 50 uM cAMP, buffer as in Kasai et al. 2015 (salt, pH, temperature not given)
T1 sequence: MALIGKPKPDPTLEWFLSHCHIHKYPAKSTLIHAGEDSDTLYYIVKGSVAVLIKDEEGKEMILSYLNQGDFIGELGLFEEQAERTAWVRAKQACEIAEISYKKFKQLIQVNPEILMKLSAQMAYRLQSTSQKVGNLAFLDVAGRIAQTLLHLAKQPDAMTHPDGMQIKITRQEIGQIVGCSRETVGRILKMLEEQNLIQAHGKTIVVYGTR

CRP (N-his-CRP) = CRP (N-his-CRP) (Shewanella oneidensis MR-1, UniProt Q8EJ49 1-211); assay: EMSA; 50 uM cAMP; EMSA, 20 ul: 2 nM Cy3-labeled probe, 50 ng N-his-CRP, 50 uM cAMP; buffer as in Kasai et al. 2015 (salt, pH, temperature not given); details: protein: recombinant; tags: N-terminal His tag; chain copies: 2; label: 5'-Cy3 (forward strand); blunt

GGATCAGTTAATTGCAATACTGATAGCTAATTTAATGAAAATTTCCTTTTTTATAACTATCTGACATGTTTTTTAAAAAAATATTTGAATGGAGTTATATATACCCCACTCTTTAAGTGACACCGATCACAGTTAAGAAAATCCCATGAGAGAAGCCTCCCGCAGCACTGTAAATTAGCATT (double strand) [PBlldP2]
binding [1]: binds

GGATCAGTTAATTGCAATACTGATAGCTAATTTAATGAAAATTTCCTTTTTTATAACTATCTGACATGTTTTTTAAAAAAATATTTGAATGGAGTTATATATACCCCACTCTTTAAGTGACA (double strand) [PBlldP1]
binding [1]: no binding

B1: PBlldP3 (dsDNA)
DNA 1: ATATACCCCACTCTTTAAGTGACACCGATCACAGTTAAGAAAATCCCATG
DNA 2: CATGGGATTTTCTTAACTGTGATCGGTGTCACTTAAAGAGTGGGGTATAT
binding result (CRP (N-his-CRP)): binds

B2: PBlldP3m (dsDNA)
DNA 1: ATATACCCCACTCTTTACCCCCCACCGAGGGGGGTTAAGAAAATCCCATG
DNA 2: CATGGGATTTTCTTAACCCCCCTCGGTGGGGGGTAAAGAGTGGGGTATAT
binding result (CRP (N-his-CRP)): no binding
